The RNAGym collection of RNA variant scans (doi:10.1021/acssynbio.7b00057)

B1: Pistol ribozyme (parent)
chain: GGGUCGUUGUUCCAUAAUCGCGUGGAUAUGGCACGCAAGUUUCUACCGGGCACCGUAAAUGUCCGACUGGAGCCGUUCGGGCGGCUAUAAACAGACCUCAGGCCCGAAGCGUGGCGGCACCUGCCGCCGGUGGUAAAAAAGAUCGGAAGAGCACACGUCU

Variants of: B1
Experiment: aptazyme ON/OFF ratio, guanine; higher = stronger switching; co-transcriptional cleavage with and without guanine

| Variant | aptazyme ON/OFF ratio |
| --- | --- |
| U7A U8A U11A C12U C13U | 1.25 |
| U7A U8A U11A C12U C13G | 1.28 |
| U7A U8A U11A C12U C13A | 1.29 |
| U7A U8C C12A C13A | 1.28 |
| U7A U8C C12A C13G | 1.11 |
| U7A U8C C12A C13U | 1.24 |
| U7A U8C G9A U10A | 1.37 |
| U7A U8C C13A | 1.26 |
| U7A U8C C13G | 1.16 |
| U7A U8C C13U | 1.51 |
| U7A U8A U11C C12G C13G | 1.24 |
| U7A U8A U11C C12G C13A | 1.25 |
| U7A U8A U11C C12G C13U | 1.46 |
| U7A U8A U11C C12U | 1.48 |
| U7A U8A U11C C12G | 1.17 |
| U7A U8A U11C C12A | 1.36 |
| U7A U8A U11A C12G C13U | 1.16 |
| U7A U8A U11A C12G C13G | 1.13 |
| U7A U8A U11A C12G C13A | 1.17 |
| U7A U8C G9A C12G C13U | 1.2 |
| U7A U8C G9A C12G C13A | 1.13 |

| Variant | aptazyme ON/OFF ratio |
| --- | --- |
| U7A U8C G9A C12G C13G | 1.12 |
| U7A U8C G9A U10A C12G C13G | 1.25 |
| U7A U8C G9A U10A C12G C13A | 1.14 |
| U7A U8C G9A U10A C12G C13U | 1.28 |
| U7A U8A U11A C12A C13U | 1.26 |
| U7A U8A U11A C12A C13A | 1.33 |
| U7A U8A U11A C12A C13G | 1.28 |
| U7A U8C C12G C13A | 1.18 |
| U7A U8C C12G C13G | 1.19 |
| U7A U8C C12G C13U | 1.35 |
| U7A U8C G9A U10A U11C C12A C13U | 1.25 |
| U7A U8C G9A U10A U11C C12A C13G | 1.18 |
| U7A U8C G9A U10A U11C C12A C13A | 1.14 |
| U7A U8C G9A U10A U11G C13G | 1.12 |
| U7A U8C G9A U10A U11G C13U | 1.17 |
| U7A U8C G9A U10A U11G C13A | 1.12 |
| U7A U8A U10G U11G C12U C13U | 1.27 |
| U7A U8A U10G U11G C12U C13A | 1.23 |
| U7A U8A U10G U11G C12U C13G | 1.26 |
| U7A U8C G9A C13G | 1.04 |
| U7A U8C G9A C13U | 1.18 |

| Variant | aptazyme ON/OFF ratio |
| --- | --- |
| U7A U8C G9A C13A | 1.14 |
| U7A U8A U10G U11C C12U C13A | 1.42 |
| U7A U8A U10G U11C C12U C13U | 1.47 |
| U7A U8A U10G U11C C12U C13G | 1.48 |
| U7A U8C G9A C12A C13A | 1.18 |
| U7A U8C G9A C12A C13G | 1.14 |
| U7A U8C G9A C12A C13U | 1.16 |
| U7A U8A U10G U11C C13A | 1.17 |
| U7A U8A U10G U11C C13G | 1.11 |
| U7A U8A U10G U11C C13U | 1.04 |
| U7A U8A U10G U11C C12U | 1.1 |
| U7A U8A U10G U11G | 1.38 |
| U7A U8A U11C | 1.38 |
| U7A U8A U11G | 1.25 |
| U7A U8A U11A | 1.22 |
| U7A U8C G9A C12G | 1.43 |
| U7A U8C G9A C12U | 1.21 |
| U7A U8C G9A C12A | 1.22 |
| U7A U8A U11C C12A C13A | 1.02 |
| U7A U8A U11C C12A C13U | 1.69 |
| U7A U8A U11C C12A C13G | 1.42 |

| Variant | aptazyme ON/OFF ratio |
| --- | --- |
| U7A U8A U11C C13U | 1.23 |
| U7A U8A U11C C13G | 1.09 |
| U7A U8A U11C C13A | 1.4 |
| U7A U8A U11C C12U C13U | 1.59 |
| U7A U8A U11C C12U C13G | 1.21 |
| U7A U8A U11C C12U C13A | 1.21 |
| U7A U8C G9A U10A U11C C12U C13U | 1.05 |
| U7A U8C G9A U10A U11C C12U C13G | 1.15 |
| U7A U8C G9A U10A U11C C12U C13A | 1.12 |
| U7A U8C G9A U10A U11A C12A C13G | 1.18 |
| U7A U8C G9A U10A U11A C12A C13U | 1.25 |
| U7A U8C G9A U10A U11A C12A C13A | 1.11 |
| U7A U8A U11G C13A | 1.16 |
| U7A U8A U11G C13G | 1.1 |
| U7A U8A U11G C13U | 1.2 |
| U7A U8A U11G C12A C13A | 1.15 |
| U7A U8A U11G C12A C13U | 1.46 |
| U7A U8A U11G C12A C13G | 1.11 |
| U7A U8C G9A U10A U11A C12U C13A | 1.13 |
| U7A U8C G9A U10A U11A C12U C13G | 1.11 |
